Assay results: publication PMC3422313
pKd: −log10 of the molar value.

Experiments:
[1] = target: human monoclonal anti-V3 antibody 447-52D (ARP3219) (human); assay: SPR; BIAcore 3000; mAb 447-52D immobilised on CM5 by EDC/NHS (about 2000 RU); p24:V3 proteins as analyte 0.10-4.0 uM; HBS (10 mM Hepes, 150 mM NaCl, 3 mM EDTA, pH 7.4), 0.1 mM TCEP; 20 ul/min; 25 C; 1:1 Langmuir fit
[2] = target: p24:V3 CC mutant (chimeric p24:V3 protein with A14C/E45C in the p24 sequence) (HIV) (UniProt P12493); assay: cross-linking; disulfide cross-linking by dialysis into assembly buffer (50 mM Tris pH 8, 1 M NaCl) with beta ME reduced to 20 mM or lower; read by non-reducing SDS-PAGE, 10% gel
[3] = target: p24:V3 CCAA mutant (chimeric p24:V3 protein with A14C/E45C/W184A/M185A in the p24 sequence) (HIV); assay: SEC; Superdex-200 PC; 30 mM Tris pH 8.0, 300 mM NaCl, 2 mM bME; 0.04 mL/min; compared with aldolase (158 kDa) and ferritin (440 kDa)
[4] = target: p24:V3 CCAA mutant (chimeric p24:V3 protein with A14C/E45C/W184A/M185A in the p24 sequence) (HIV); assay: cross-linking; disulfide cross-linking by dialysis into assembly buffer (50 mM Tris pH 8, 1 M NaCl) with beta ME reduced to 20 mM or lower; read by non-reducing SDS-PAGE, 10% gel
[5] = target: p24:V3 WT chimera (HIV p24 CA protein with the full V3 loop in place of the cyclophillin binding loop) (HIV) (UniProt P12493); assay: SEC; Superdex-200 PC; 30 mM Tris pH 8.0, 300 mM NaCl, 2 mM bME; 0.04 mL/min; compared with aldolase (158 kDa) and ferritin (440 kDa)

Sequence of human monoclonal anti-V3 antibody 447-52D (ARP3219) (human) (heavy, as listed by the source, chain 1 of 2): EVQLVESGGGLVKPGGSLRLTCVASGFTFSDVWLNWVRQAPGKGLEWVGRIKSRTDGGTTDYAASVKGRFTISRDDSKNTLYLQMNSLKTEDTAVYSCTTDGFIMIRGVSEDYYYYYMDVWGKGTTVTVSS
Sequence of human monoclonal anti-V3 antibody 447-52D (ARP3219) (human) (light, as listed by the source, chain 2 of 2): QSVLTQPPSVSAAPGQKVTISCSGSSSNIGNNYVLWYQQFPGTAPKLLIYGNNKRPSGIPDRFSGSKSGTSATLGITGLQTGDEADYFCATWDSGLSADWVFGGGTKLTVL

Work on “p24:V3 CC mutant (chimeric p24:V3 protein with A14C/E45C in the p24 sequence) (from UniProt P12493 101-500)” yielded a pKd [1] of 4.87 and a stoichiometry N [2] of 6.

“p24:V3 CCAA mutant (chimeric p24:V3 protein with A14C/E45C/W184A/M185A in the p24 sequence)” was tested, and the stoichiometry N [3] was 6 and the stoichiometry N [4] was 6.

“p24:V3 WT chimera (HIV p24 CA protein with the full V3 loop in place of the cyclophillin binding loop) (from UniProt P12493 1-85; P12493 101-500)” was tested, and the stoichiometry N [5] was 6 and the pKd [1] was 5.00.
